Measured values from publication PMC11086168, “Combining the Benefits of Biotin–Streptavidin Aptamer Immobilization with the Versatility of Ni-NTA Regeneration Strategies for SPR”.

What was measured:
[1] = target: T1, 6xHis-streptavidin (His-SA) (UniProt P22629 25-183); assay: EMSA; no biotin; 1 µM 29mer; LSPR on Ni-NTA chip with His-SA capture; sample buffer PBS-T (1X PBS, 0.05% Tween 20); immobilization in PBS-T or PBS-I (1X PBS, 300 mM NaCl total, pH 8.0); 20; settings: protein: commercial; tags: 6xHis; chain copies: 4
T1 sequence (P22629 25-183): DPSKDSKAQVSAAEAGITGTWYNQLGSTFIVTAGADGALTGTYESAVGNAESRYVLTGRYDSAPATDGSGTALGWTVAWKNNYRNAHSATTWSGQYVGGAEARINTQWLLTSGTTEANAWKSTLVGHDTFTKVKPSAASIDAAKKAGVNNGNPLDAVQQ

thrombin [2] = target: T2, thrombin (human plasma, UniProt P00734;P00734 328-363;364-622); assay: SPR (LSPR); Experiment 8; reused surface of Experiment 7, no new immobilization; printed as KA from Hill fit; BSA present; LSPR on Ni-NTA chip with His-SA capture; sample buffer PBS-T (1X PBS, 0.05% Tween 20); immobilization in PBS-T or PBS-I (1X PBS, 300 mM NaCl total, pH 8.0); 20
thrombin [3] = target: T2, thrombin; assay: SPR (LSPR); Experiment 7; surface immobilized in PBS-I; printed as KA from Hill fit; BSA present; LSPR on Ni-NTA chip with His-SA capture; sample buffer PBS-T (1X PBS, 0.05% Tween 20); immobilization in PBS-T or PBS-I (1X PBS, 300 mM NaCl total, pH 8.0); 20
thrombin [4] = target: T2, thrombin; assay: SPR (LSPR); Experiment 1; PBS-T; printed as KA from Hill fit (half-saturation, in nM); aptamer immobilized on His-SA/Ni-NTA; BSA present; LSPR on Ni-NTA chip with His-SA capture; sample buffer PBS-T (1X PBS, 0.05% Tween 20); immobilization in PBS-T or PBS-I (1X PBS, 300 mM NaCl total, pH 8.0); 20
[5] = target: T1, 6xHis-streptavidin (His-SA); assay: EMSA; binding through 5' biotin; LSPR on Ni-NTA chip with His-SA capture; sample buffer PBS-T (1X PBS, 0.05% Tween 20); immobilization in PBS-T or PBS-I (1X PBS, 300 mM NaCl total, pH 8.0); 20; settings: protein: commercial; tags: 6xHis; chain copies: 4; label: 5' biotin

B1: unlabeled 29mer (structured_DNA)
DNA: AGTCCGTGGTAGGGCAGGTTGGGGTGACT
**Q.** Does B1 bind [1]?
**A.** no binding

B2: B-29mer (biotinylated thrombin-binding aptamer) (structured_DNA)
DNA: AGTCCGTGGTAGGGCAGGTTGGGGTGACT
modifications: 5' biotin (5Biosg)
**Q.** With B2 as the binder, how does the Kd (thrombin [2]) read?
**A.** 10.3 nM

**Q.** And the Kd (thrombin [3])?
**A.** 18.6 nM

**Q.** What about the Kd (thrombin [4]) of the same binder?
**A.** 31.2 nM

**Q.** Does B2 bind [5]?
**A.** binds
